Among the data in patent publication US20210396744A1 are surface potential variation values, retold here.

The target in test [1] is IgG. As to the kind of experiment: sandwich liposome assay: IgG at 50 nM captured by DNA aptamer on silicon supporter, FcIII peptide liposomes bound, washed, UV-triggered release of pH 8.5 buffer, change of surface potential read (SD 2.87 mV).
Test [2] addresses IgG. The test can be described thus: sandwich liposome assay: IgG at 10 nM captured by DNA aptamer on silicon supporter, FcIII peptide liposomes bound, washed, UV-triggered release of pH 8.5 buffer, change of surface potential read (SD 0.62 mV).

In the case of FcIII peptide, the surface potential variation in test [1] was -10.6 mV; in test [2], -3.75 mV.
